Test results published in publication PMC6394990, “Detailed characterization of the solution kinetics and thermodynamics of biotin, biocytin and HABA binding to avidin and streptavidin” (PLoS ONE, 2019).
Where “and” joins values, the source holds several entries; their conditions need not be identical. Equal values may be shown once. Read-outs that look alike come from different tables or passages of the source.

Experiments:
[1] = biological target: T1, avidin (AV) (Gallus gallus, UniProt P02701); conditions: cited from earlier work; for Off rate constants, rate / Off rate constants, ln k: AV; for Off rate constants, rate: in s^-1 (unit assumed); for Off rate constants, ln k: the values are: ln koff
T1 construct: purchased Calbiochem (La Jolla, CA)
T1 sequence (P02701 25-152): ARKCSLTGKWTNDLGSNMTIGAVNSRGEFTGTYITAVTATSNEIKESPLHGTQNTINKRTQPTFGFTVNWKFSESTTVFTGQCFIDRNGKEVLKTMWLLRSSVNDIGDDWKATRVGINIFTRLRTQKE

[2] = biological target: T1, avidin (AV); test: Literature kinetics, affinity and dissociation (backward) activation parameters; type: binding
[3] = biological target: T1, avidin (AV); test: Stopped-flow association kinetics of dye-labeled biotin probes binding to avidin (F(t), rF(t); Arrhenius plots/global fitting); set-up: ln(k) / dS+ / dG+ / Eon for BFl / b of the line y = m1x+b1: unit not given here; conditions: forward step from Initial 0, probe not given
Protocol: (§1) These reactions were carried out in a buffered solution of 10 mM Tris-HCl, 100 mM KCl, 2.5 mM MgCl2 and 1 mM CaCl2 at pH 8 and only AV-BcO reactions included pH 9 and 10. The concentrations, after mixing, were of 20 nM of dye-labeled B7 probe and 260 nM, 520 nM or 1040 nM of AV; and 200 nM, 300 nM, 400 nM or 800 nM of SAV at temperatures of 10, 15, 20 and 25°C. The deglycosylation of AV (for comparative association reactions) was carried out using the provided standard protocol with endoglycosidase H [47], both with and without incubation of a denaturant solution (2% SDS and 1M 2-mercaptoethanol).
The reactions were collected with the SF instrument, described previously. The fluorescence signal was collected through a 520 nm interference filter (Oriel Corp., Stratford, CT) with a detector time constant and SF dead time of 1 μs and 1 ms, respectively. The excitation light was provided by the Coherent Ar^+ ion laser (described above) at 488 nm with […] of incident power on the reaction cuvette. The laser source was followed by the photo-elastic modulator described above with the axis oriented 45^o with respect to the electric vector of the incident light and with the half-wave modulation (50 kHz) set for 488 nm excitation. The demodulation circuitry following the photomultiplier provided a DC(t) and a rectified AC(t) which were converted to digital data by a high-speed digitizer (PCI-5122) from National Instruments (Austin, TX) with 14-bit resolution and 100 MHz bandwidth, through channels 0 and 1. The data acquisition was controlled by LabVIEW (Vr 8) software at a collection rate of 6120 data points/second and stored in spreadsheets. The AC(t) and DC(t) data were baseline corrected before obtaining the signal ratio (Eq 4) as a function of time (ρt).
(§2) The constant AGain is the instrumental amplitude gain and was evaluated by solving ρ(t) using the known steady state anisotropy (rss) of the complexes which is equivalent to the r(t) at t = ∞; and H, obtained from the equivalent grating factor (G) for the filters and photo multiplier tubes in the SF. For the probes used in here G was 0.82 and H = (1-G)/(1+G) = 0.099. Knowing Again and H, the AC(t) and DC(t) signals can be solved for r(t) and F(t) (Eqs 4 and 5) and the normalized fluorescence, F¯(t) , and corrected fluorescence anisotropy, rF¯(t), were obtained when F¯(0) and rF¯(0) were scaled to 1 at t = 0.
(§3) The F¯(t) (Eq 6) is equivalent to (I||) + 2 (I⊥) and proportional to quantum yield (QYi), molar absorptivity (εi) and to the formation or disappearance of the emitting species Xi(t); and rF¯(t) including the steady state anisotropies (rss) of each fluorescent species (Eq 7).
(§4) The possible reaction models were discriminated by the squared residuals of the observed and calculated association traces of both fluorescence and anisotropy fluorescence signals, F¯(t) and rF¯(t) , respectively.

[4] = biological target: T1, avidin (AV); conditions: cited from earlier work
[5] = biological target: T1, avidin (AV); test: Literature calorimetry reaction thermodynamics; type: binding; conditions: line without author below the literature lines (average)
[6] = set-up: method as in PMID 10796986; conditions: cited from earlier work
[7] = biological target: T2, streptavidin (SAV) (Streptomyces avidinii, UniProt P22629); test: Stopped-flow association kinetics of dye-labeled biotin probes binding to streptavidin (F(t), rF(t); Arrhenius plots/global fitting); conditions: forward step from Initial 0, probe not given
T2 construct: purchased Sigma Aldrich (St. Louis, MO)
T2 sequence (P22629 25-183): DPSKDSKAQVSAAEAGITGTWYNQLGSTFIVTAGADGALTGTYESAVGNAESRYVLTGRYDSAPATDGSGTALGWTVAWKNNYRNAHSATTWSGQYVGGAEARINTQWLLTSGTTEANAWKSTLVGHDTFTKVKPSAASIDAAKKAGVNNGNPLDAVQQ
Protocol: as §1, with “The concentrations, after mixing, were of 20 nM of dye-labeled B7 probe and 260 nM, 520 nM or 1040 nM of AV; and 200 nM, 300 nM, 400 nM or 800 nM of SAV at temperatures of 10, 15, 20 and 25°C.” left out
The reactions were collected with the SF instrument, described previously. […] The AC(t) and DC(t) data were baseline corrected before obtaining the signal ratio (Eq 4) as a function of time (ρt).
as §2, §3, §4

[8] = biological target: T2, streptavidin (SAV); conditions: cited from earlier work
[9] = biological target: T2, streptavidin (SAV); test: Literature kinetics, affinity and dissociation (backward) activation parameters; type: binding
[10] = biological target: T2, streptavidin (SAV); test: Literature calorimetry reaction thermodynamics; type: binding
[11] = biological target: T2, streptavidin (SAV); conditions: cited from earlier work; for Off rate constants, rate / Ea from off rate constants: SAV; for Off rate constants, rate: ligand not given, ref klumb paper; for ln(frac bound): rate off SAV
[12] = free biotin, 43 C, read from a literature plot
[13] = free biotin, 55 C, read from a literature plot
[14] = free biotin, 66 C, read from a literature plot
[15] = Enthalpy block, from literature off rates, ref not given
[16] = ligand not given (biotin binding), ref Helppolainen
[17] = line without author below the literature lines
[18] = Enthalpy block, literature value, ref not given
[19] = Gibbs block, literature value, ref not given
[20] = entropy block, literature value, ref not given
[21] = ligand not given (biotin binding), first Green line, ref Green
[22] = ligand not given (biotin binding), ref Suurkuusk
[23] = ligand not given (biotin binding), second Green line, ref Green
[24] = ligand not given (biotin binding), ref Green
[25] = ligand not given (biotin binding), ref Hyre
[26] = ligand not given (biotin binding), ref Klumb
[27] = ligand not given (biotin binding), ref Weber
[28] = line without author below the literature lines (average)

Compound: O=C(O)CCCC[C@@H]1SC[C@@H]2NC(=O)N[C@@H]21 [free biotin]
- Off rate constants, rate [1, 12]: 5.623e-6
- Off rate constants, ln k [1, 12]: -12.1
- Off rate constants, rate [1, 13]: 6.31e-5
- Off rate constants, ln k [1, 13]: -9.67
- Off rate constants, rate [1, 14]: 0.0005623
- Off rate constants, ln k [1, 14]: -7.48

Compound: AV: avidin, homo-tetrameric biotin-binding protein, CAS 1405-69-2
- Off rate constants, ln k ([1]; 43 C, ligand not given, ref rhiziavidin paper): -14.3
- Off rate constants, ln k ([1]; 55 C, ligand not given, ref rhiziavidin paper): -12.2
- Off rate constants, ln k ([1]; 66 C, ligand not given, ref rhiziavidin paper): -10
- Off rate constants, ln k ([1]; 68 C, ligand not given, ref rhiziavidin paper): -10.1
- Eoff (ave) [1, 15]: 37.6
- Eaoff [1, 16]: 35.6
- dSǂ from off rate constants, from transition state teory ([2]; AV): 31.8 cal/(mol·K)
- TdS* ([2]; AV, at 25C): 1.28E+04
- dG* ([2]; AV, at 25C, from off rates of rhiziavidin-helponainen-2007): 2.47E+04
- dS (intercept less ln[RT/Noh), times 1.987) ([2]; AV, from off rate constants): 43 cal/(mol·K)
- slope intersept, ln A ([2]; AV, from off rate constants of rhiziavidin-helponainen-2007): 45.4
- sum (Enthalpy: Eon for BFl and dH) ([2]; Enthalpy block): 37.6
- sum (Gibbs: dG+ and dG) ([2]; Gibbs block): 25.4
- sum (entropy: dS+ and dS) ([2]; entropy block): 41.7
- Ea from off rate constants ([2]; for AV, from off rates of rhiziavidin-helponainen-2007): 37.5 kcal/mol
- Eaoff [2, 17]: 35.6
- dH + Ea [2, 17]: 36.5
- dG+ ([3]; Gibbs block): 4.7
- dS+ ([3]; entropy block): 32.8
- dH [4, 18]: -23.2
- dG [4, 19]: -20.7
- dS [4, 20]: -8.9
- TdS [4, 21]: 0 kcal/mol
- dG [4, 21]: -20.5 kcal/mol
- dS [4, 21]: 0
- TdS [4, 22]: -8.9 kcal/mol
- dCp [4, 22]: -237
- dH [4, 22]: -22.5 kcal/mol
- dH ([4]; ligand not given (biotin binding), ref swamy): -23.4 kcal/mol
- TdS [4, 23]: -2.65 kcal/mol
- dG [4, 23]: -20.75 kcal/mol
- dH [4, 23]: -20.3 kcal/mol
- dS [4, 23]: -8.9
- dH [5]: -21.9 kcal/mol
- thermal stability with bound B7 [6]: 117 °C and 112 °C
- thermal stability without bound B7 [6]: 84 °C

Compound: SAV: streptavidin, homo-tetrameric biotin-binding protein, CAS 9013-20-1
- dG+ ([7]; Gibbs block): 4
- dS+ ([7]; entropy block): 6.7
- dH [8, 18]: -24.8
- dG [8, 19]: -18.2
- dS [8, 20]: -21
- TdS [8, 24]: -6.4
- dG [8, 24]: -18.1 kcal/mol
- dH [8, 16]: -26.7 kcal/mol
- TdS [8, 25]: -13.7
- dCp [8, 25]: -345
- dG [8, 25]: -18.3 kcal/mol
- dH [8, 25]: -24.5 kcal/mol
- dS [8, 25]: -45.9
- dH [8, 26]: -24.9 kcal/mol
- TdS ([8]; ligand not given (biotin binding), ref Stayton): -21.5
- dH [8, 27]: -32 kcal/mol
- dH ([8]; ligand not printed in the sheet (biotin binding), ref Green): -23 kcal/mol
- sum (Enthalpy: Eon for BFl and dH) ([9]; Enthalpy block): 30.8
- sum (Gibbs: dG+ and dG) ([9]; Gibbs block): 22.2
- dSǂ from off rate constants, from transition state teory ([9]; SAV): 18.8
- TdS* ([9]; SAV, at 25C): 8.94E+03
- dG* ([9]; SAV, at 25C, line names rhiziavidin-helponainen-2007): 2.14E+04
- slope intersept, ln A ([9]; SAV, from literature off rate constants): 38.85
- dS (intercept less ln[RT/Noh), times 1.987) ([9]; SAV, from off rate constants): 30.0
- sum (entropy: dS+ and dS) ([9]; entropy block): 27.7
- dH + Ea [9, 17]: 31.8
- dS* [9, 17]: 0.0195 kcal/mol
- Eaoff [9, 28]: 29.6
- TdS [10, 17]: -46.0
- dH [10, 28]: -24.8 kcal/mol
- Eoff (ave) [11, 15]: 29.4
- Off rate constants, rate ([11]; 20 C): 1.862e-6
- Off rate constants, rate ([11]; 30 C): 9.12e-6
- Off rate constants, rate ([11]; 39 C): 4.467e-5
- Ea from off rate constants ([11]; ref hyre): 30.4 kcal/mol and 30.4 ± 0.2hyre kcal/mol
- Ea from off rate constants ([11]; ref klumb): 29.4 kcal/mol and 29.4 ± 0.4klumb kcal/mol
- Ea from off rate constants ([11]; ref rhiziavidin-helponainen-2007): 29.0 ± 1.0 kcal/mol
- Eaoff [11, 16]: 29
- TdS* [11, 16]: 7.6 kcal/mol
- dH* [11, 16]: 32 kcal/mol
- dS* [11, 16]: 0.0257 kcal/mol
- Eaoff [11, 25]: 29.4
- TdS* [11, 25]: 5.6 kcal/mol
- dH* [11, 25]: 30.4 kcal/mol
- dS* [11, 25]: 0.0058 kcal/mol
- Eaoff [11, 26]: 30.4
- dG* [11, 26]: 24.6
- dH* [11, 27]: 40 kcal/mol
- ln(frac bound) ([11]; time 13 hr, ref klumb): -0.19
- ln(frac bound) ([11]; time 22 hr, ref klumb): -0.36
- ln(frac bound) ([11]; time 36 hr, ref klumb): -0.47
- ln(frac bound) ([11]; time 47 hr, ref klumb): -0.62
- ln(frac bound) ([11]; time 63 hr, ref klumb): -0.78
- thermal stability with bound B7 [6]: 112 °C and 117 °C
- thermal stability without bound B7 [6]: 75 °C
